Earlier results, collected in US20250101104A1, “BISPECIFIC MOLECULE WITH TUNABLE AFFINITY TO A TARGETED ANTIGEN” (MABSWITCH INC., priority 2022, published 2025).

System: AML cell lines and primary AML blasts
Settings: in vitro and in NOD SCID mice injected with human AML

B1: MGDO06: CD3×CD123 DART (Macrogenics) (antibody, chains of the INN, looked up, V domains shown)
VH: EVQLVQSGAELKKPGASVKVSCKASGYTFTDYYMKWVRQAPGQGLEWIGDIIPSNGATFYNQKFKGRVTITVDKSTSTAYMELSSLRSEDTAVYYCARSHLLRASWFAYWGQGTLVTVSS
VL: DFVMTQSPDSLAVSLGERVTMSCKSSQSLLNSGNQKNYLTWYQQKPGQPPKLLIYWASTRESGVPDRFSGSGSGTDFTLTISSLQAEDVAVYYCQNDYSYPYTFGQGTKLEIK
VH2: EVQLVESGGGLVQPGGSLRLSCAASGFTFSTYAMNWVRQAPGKGLEWVGRIRSKYNNYATYYADSVKDRFTISRDDSKNSLYLQMNSLKTEDTAVYYCVRHGNFGNSYVSWFAYWGQGTLVTVSS
VL2: QAVVTQEPSLTVSPGGTVTLTCRSSTGAVTTSNYANWVQQKPGQAPRGLIGGTNKRAPWTPARFSGSLLGGKAALTITGAQAEDEADYYCALWYSNLWVFGGGTKLTVL
modifications: DART
For B1, the “killing of AML cell lines and primary AML blasts” value is listed as “dose-dependent killing”.
